B1: BALF2, DNA-binding protein of Epstein-Barr Virus (natural protein)
chain: MQGAQTSEDNLGSQSQPGPCGYIYFYPLATYPLREVATLGTGYAGHRCLTVPLLCGITVEPGFSINVKALHRRPDPNCGLLRATSYHRDIYVFHNAHMVPPIFEGPGLEALCGETREVFGYDAYSALPRESSKPGDFFPEGLDPSAYLGAVAITEAFKERLYSGNLVAIPSLKQEVAVGQSASVRVPLYDKEVFPEGVPQLRQFYNSDLSRCMHEALYTGLAQALRVRRVGKLVELLEKQSLQDQAKVAKVAPLKEFPASTISHPDSGALMIVDSAACELAVSYAPAMLEASHETPASLNYDSWPLFADCEGPEARVAALHRYNASLAPHVSTQIFATNSVLYVSGVSKSTGQGKESLFNSFYMTHGLGTLQEGTWDPCRRPCFSGWGGPDVTGTNGPGNYAVEHLVYAASFSPNLLARYAYYLQFCQGQKSSLTPVPETGSYVAGAAASPMCSLCEGRAPAVCLNTLFFRLRDRFPPVMSTQRRDPYVISGASGSYNETDFLGNFLNFIDKEDDGQRPDDEPRYTYWQLNQNLLERLSRLGIDAEGKLEKEPHGPRDFVKMFKDVDAAVDAEVVQFMNSMAKNNITYKDLVKSCYHVMQYSCNPFAQPACPIFTQLFYRSLLTILQDISLPICMCYENDNPGLGQSPPEWLKGHYQTLCTNFRSLAIDKGVLTAKEAKVVHGEPTCDLPDLDAALQGRVYGRRLPVRMSKVLMLCPRNIKIKNRVVFTGENAALQNSFIKSTTRRENYIINGPYMKFLNTYHKTLFPDTKLSSLYLWHNFSRRRSVPVPSGASAEEYSDLALFVDGGSRAHEESNVIDVVPGNLVTYAKQRLNNAILKACGQTQFYISLIQGLVPRTQSVPARDYPHVLGTRAVESAAAYAEATSSLTATTVVCAATDCLSQVCKARPVVTLPVTINKYTGVNGNNQIFQAGNLGYFMGRGVDRNLLQAPGAGLRKQAGGSSMRKKFVFATPTLGLTVKRRTQAATTYEIENIRAGLEAIISQKQEEDCVFDVVCNLVDAMGEACASLTRDDAEYLLGRFSVLADSVLETLATIASSGIEWTAEAARDFLEGVWGGPGAAQDNFISVAEPVSTASQASAGLLLGGGGQGSGGRRKRRLATVLPGLEV
notes: also called EBV BALF2; source: insect cells, purified
B2: ICP8, full-length (Herpes Simplex Virus 1 DNA-binding protein) (natural protein)
chain: METKPKTATTIKVPPGPLGYVYARACPSEGIELLALLSARSGDSDVAVAPLVVGLTVESGFEANVAVVVGSRTTGLGGTAVSLKLTPSHYSSSVYVFHGGRHLDPSTQAPNLTRLCERARRHFGFSDYTPRPGDLKHETTGEALCERLGLDPDRALLYLVVTEGFKEAVCINNTFLHLGGSDKVTIGGAEVHRIPVYPLQLFMPDFSRVIAEPFNANHRSIGEKFTYPLPFFNRPLNRLLFEAVVGPAAVALRCRNVDAVARAAAHLAFDENHEGAALPADITFTAFEASQGKTPRGGRDGGGKGAAGGFEQRLASVMAGDAALALESIVSMAVFDEPPTDISAWPLFEGQDTAAARANAVGAYLARAAGLVGAMVFSTNSALHLTEVDDAGPADPKDHSKPSFYRFFLVPGTHVAANPQVDREGHVVPGFEGRPTAPLVGGTQEFAGEHLAMLCGFSPALLAKMLFYLERCDGAVIVGRQEMDVFRYVADSNQTDVPCNLCTFDTRHACVHTTLMRLRARHPKFASAARGAIGVFGTMNSMYSDCDVLGNYAAFSALKRADGSETARTIMQETYRAATERVMAELETLQYVDQAVPTAMGRLETIITNREALHTVVNNVRQVVDREVEQLMRNLVEGRNFKFRDGLGEANHAMSLTLDPYACGPCPLLQLLGRRSNLAVYQDLALSQCHGVFAGQSVEGRNFRNQFQPVLRRRVMDMFNNGFLSAKTLTVALSEGAAICAPSLTAGQTAPAESSFEGDVARVTLGFPKELRVKSRVLFAGASANASEAAKARVASLQSAYQKPDKRVDILLGPLGFLLKQFHAAIFPNGKPPGSNQPNPQWFWTALQRNQLPARLLSREDIETIAFIKKFSLDYGAINFINLAPNNVSELAMYYMANQILRYCDHSTYFINTLTAIIAGSRRPPSVQAAAAWSAQGGAGLEAGARALMDAVDAHPGAWTSMFASCNLLRPVMAARPMVVLGLSISKYYGMAGNDRVFQAGNWASLMGGKNACPLLIFDRTRKFVLACPRAGFVCAASSLGGGAHESSLCEQLRGIISEGGAAVASSVFVATVKSLGPRTQQLQIEDWLALLEDEYLSEEMMELTARALERGNGEWSTDAALEVAHEAEALVSQLGNAGEVFNFGDFGCEDDNATPFGGPGAPGPAFAGRKRAFHGDDPFGEGPPDKKGDLTLDML
notes: also called full-length ICP8 form; source: insect cells, purified

How the values were obtained:
[1] = target: the molecule itself; assay: filament reconstitution seen by electron microscopy; protein incubated without DNA under the same conditions as the filament reconstitution; kind of microscopy not told
[2] = target: the molecule itself; assay: cryo-EM structure; ICP8 double filament reconstituted with linear dsDNA carrying long ssDNA tails (T4 polymerase-treated); single-particle analysis of filament segments, 3.2 Å; DNA could not be built into the map

Protein | binding result [1] | binding result [2]
B1 | binds | 
B2 |  | binds

Source: paper doi:10.1101/2025.06.25.661518, “Structural insights into DNA annealing and recombination by herpesviral DNA-binding proteins ICP8 and BALF2” (bioRxiv, 2025)
